Measurements: US20240270840A1 (NECTIN THERAPEUTICS, published 2024)

How the values were obtained:
Human CD112R (PVRIG) [1] = biological target: T1, Human CD112R (PVRIG) (human, UniProt Q6DKI7 41-171, limits assumed); assay: affinity of glycosylation-motif variants (Table 2; method not named there)
T1 sequence (looked up): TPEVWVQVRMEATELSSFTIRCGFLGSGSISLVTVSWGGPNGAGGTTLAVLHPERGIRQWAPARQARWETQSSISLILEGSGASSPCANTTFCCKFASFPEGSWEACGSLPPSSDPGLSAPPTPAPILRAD

Human CD112R (PVRIG) [2] = biological target: T1, Human CD112R (PVRIG); assay: binding kinetics to human CD112R (Table 4; scFv variants by paragraph 288)
[3] = biological target: Cynomolgus monkey (Macaca fascicularis) CD112R expressed on cells (cynomolgus monkey (Macaca fascicularis)); assay: flow cytometry on 293T cells; EC50 on cynomolgus CD112R against EC50 on human CD112R
[4] = biological target: Cynomolgus monkey (Macaca fascicularis) CD112R expressed on cells (cynomolgus monkey (Macaca fascicularis)); assay: flow cytometry on cynomolgus CD8 T cells (endogenous CD112R)
[5] = biological target: T2, Human CD112R expressed on cells (human, UniProt Q6DKI7 1-326); assay: flow cytometry on human NK cells (endogenous CD112R)
T2 construct: whole, on cells; also called HuCD112R; hCD112R
T2 sequence (looked up): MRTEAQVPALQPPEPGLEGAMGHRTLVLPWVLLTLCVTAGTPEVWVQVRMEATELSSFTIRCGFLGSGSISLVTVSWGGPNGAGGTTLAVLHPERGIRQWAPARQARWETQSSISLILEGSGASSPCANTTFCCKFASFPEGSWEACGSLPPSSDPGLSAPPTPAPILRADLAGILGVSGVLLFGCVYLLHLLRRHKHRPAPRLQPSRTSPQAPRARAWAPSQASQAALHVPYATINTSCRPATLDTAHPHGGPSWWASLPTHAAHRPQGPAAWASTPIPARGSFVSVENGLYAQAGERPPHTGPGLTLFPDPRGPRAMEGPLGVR
Method: (§1) The humanized mAbs were tested for binding of endogenous and overexpressed human and cynomolgus CD112R.
(§2) Table 7 summarizes EC50 values calculated based on the binding curves of selected humanized mAbs to cynomolgus CD8 T cells and human NK cells, both cells expressing endogenous CD112R of the relevant species. Assay was performed as in Table 6. An anti-CD112R mAb disclosed in WO2016134333 was used for comparison. All the humanized variants have a complete cross-reactivity between the human and cynomolgus targets.

[6] = biological target: Cynomolgus monkey (Macaca fascicularis) CD112R expressed on cells (cynomolgus monkey (Macaca fascicularis)); assay: flow cytometry; EC-50 on cynomolgus CD8 T cells against EC-50 on human NK cells
[7] = biological target: T2, Human CD112R expressed on cells; assay: flow cytometry on human NK cells (endogenous CD112R); remark: listed apart in the source
[8] = biological target: Cynomolgus monkey (Macaca fascicularis) CD112R expressed on cells (cynomolgus monkey (Macaca fascicularis)); assay: flow cytometry on 293T cells expressing cynomolgus CD112R; 99-0.05 nM, three-fold dilutions
[9] = biological target: T2, Human CD112R expressed on cells; assay: flow cytometry; max binding on human NK cells against max binding on cynomolgus CD8 T cells
Method: as §1, §2

[10] = biological target: T2, Human CD112R expressed on cells; assay: flow cytometry competition on 293T cells overexpressing CD112R; antibody 40-0.018 nM; competitor hNectin-2-mIgG2a at 125 nM
Method: The humanized anti-CD112R antibodies are potent blockers of CD112R—Nectin-2 interactions. […] The antibodies were added in a range of concentrations of 40-0.018 nM in a series of three-fold dilutions. The amount of bound hNectin-2-mIgG2a was detected by anti-mouse antibodies fluorescently labeled with Dy-light 647 (115-606-071 Jackson immunoresearch) and analyzed by FACS.

Human CD112R (PVRIG) [11] = biological target: T1, Human CD112R (PVRIG); assay: SPR (Biacore); purified full antibody
[12] = biological target: T2, Human CD112R expressed on cells; assay: flow cytometry on 293T cells expressing human CD112R; 99-0.05 nM, three-fold dilutions
Method: as §1

Human CD112R (PVRIG) [13] = biological target: T1, Human CD112R (PVRIG); assay: SPR (Biacore); purified full antibody; * limit of the Biacore instrument sensitivity

B1: VH0 N28A Vk0 (antibody, human IgG1, V domains shown)
VH: QVQLQQPGAELVKPGTSVKLSCKASGYAFTSYWINWVKLRPGQGLEWIGDIYPGSYIPNYNEKFKNKATLTVDTSSSTAYMQLTSLASEDSALYYCAGGYFDVWGAGTTVTVSS
VL: DIVMTQSPSSLSVSAGEKVTMSCKSSQSLLSSGNQKNYLAWYQQKPGQPPKLLIYGASTRESGVPDRFTGSGSGTDFTLTISSVQAEDLAVYYCQNDHSYPYTFGGGTKLEIK
notes: Variant of VH0K0
Human CD112R (PVRIG) [1]
  Kd: 0.15 nM
  Relative Kd (against VH0Vk0): 0.9

B2: VH0K0 as tested in Table 4 (scFv of VH0K0) (scFv, V domains shown)
VH: QVQLQQPGAELVKPGTSVKLSCKASGYNFTSYWINWVKLRPGQGLEWIGDIYPGSYIPNYNEKFKNKATLTVDTSSSTAYMQLTSLASEDSALYYCAGGYFDVWGAGTTVTVSS
VL: DIVMTQSPSSLSVSAGEKVTMSCKSSQSLLSSGNQKNYLAWYQQKPGQPPKLLIYGASTRESGVPDRFTGSGSGTDFTLTISSVQAEDLAVYYCQNDHSYPYTFGGGTKLEIK
Human CD112R (PVRIG) [2]
  Kd: 0.307 nM
  Relative Kd (against VH0K0): 1
  koff: 8.89e-05 s⁻¹
  kon: 290000 M⁻¹ s⁻¹

B3: H11K2 (full humanized antibody) (antibody, V domains shown)
VH: QVQLVQSGAEVKKPGSSVKVSCKASGYTFTSYWINWVRQAPGQGLEWIGDIYPGSYIPNYNEKFKNRATLTVDTSASTAYMELSSLRSEDTAVYYCAGGYFDVWGQGTTVTVSS
VL: DIVMTQSPDSLAVSLGERATINCKSSQSLLSSGNQKNYLAWYQQKPGQPPKLLIYGASTRESGVPDRFTGSGSGTDFTLTISSLQAEDVAVYYCQNDHSYPYTFGQGTKLEIK
notes: Humanized full antibody, human IgG1; also called VH11K2
[3]
  Ratio Cyno/Hu (EC50): 2.54
[4]
  EC50: 1.29 nM
  Max binding Cyno (MFI a.u - background): 839 MFI a.u
[5]
  EC50: 1.06 nM
[6]
  Ratio Cyno/Hu (EC-50): 1.22
[7]
  Max binding Hu (MFI a.u - background): 1020 MFI a.u
[8]
  EC50: 0.71 nM
[9]
  Ratio Hu/Cyno (max binding): 1.21
[10]
  EC50: 0.32 nM
  EC-90: 9.9 nM
Human CD112R (PVRIG) [11]
  Kd: 0.112 nM
  Relative Kd (against VH0K0 N28T): 0.89
  koff: 3.77e-05 s⁻¹
  kon: 336000 M⁻¹ s⁻¹
[12]
  EC50: 0.28 nM

B4: VH0 N28S Vk0 (antibody, human IgG1, V domains shown)
VH: QVQLQQPGAELVKPGTSVKLSCKASGYSFTSYWINWVKLRPGQGLEWIGDIYPGSYIPNYNEKFKNKATLTVDTSSSTAYMQLTSLASEDSALYYCAGGYFDVWGAGTTVTVSS
VL: DIVMTQSPSSLSVSAGEKVTMSCKSSQSLLSSGNQKNYLAWYQQKPGQPPKLLIYGASTRESGVPDRFTGSGSGTDFTLTISSVQAEDLAVYYCQNDHSYPYTFGGGTKLEIK
notes: Variant of VH0K0
Human CD112R (PVRIG) [1]
  Kd: 0.116 nM
  Relative Kd (against VH0Vk0): 0.66

B5: H11K3 (full humanized antibody) (antibody, V domains shown)
VH: QVQLVQSGAEVKKPGSSVKVSCKASGYTFTSYWINWVRQAPGQGLEWIGDIYPGSYIPNYNEKFKNRATLTVDTSASTAYMELSSLRSEDTAVYYCAGGYFDVWGQGTTVTVSS
VL: DIVMTQSPDSLAVSLGERATINCKSSQSLLSSGNQKNYLAWYQQKPGQPPKLLIYGASTRESGVPDRFSGSGSGTDFTLTISSLQAEDVAVYYCQNDHSYPYTFGQGTKLEIK
notes: Humanized full antibody comprising hIgG1 Fc; also called VH11K3
[3]
  Ratio Cyno/Hu (EC50): 1.93
[4]
  EC50: 1.27 nM
  Max binding Cyno (MFI a.u - background): 833 MFI a.u
[5]
  EC50: 1.11 nM
Human CD112R (PVRIG) [13]
  Kd: 0.0788 nM
  Relative Kd (against VH0K0 N28T): 0.63
  koff: 2.42e-05 s⁻¹
  kon: 307000 M⁻¹ s⁻¹
[6]
  Ratio Cyno/Hu (EC-50): 1.14
[7]
  Max binding Hu (MFI a.u - background): 1000 MFI a.u
[8]
  EC50: 0.6 nM
[9]
  Ratio Hu/Cyno (max binding): 1.21
[10]
  EC50: 0.26 nM
  EC-90: 9.6 nM
[12]
  EC50: 0.31 nM

B6: VH0 N28T Vk0 (antibody, V domains shown)
VH: QVQLQQPGAELVKPGTSVKLSCKASGYTFTSYWINWVKLRPGQGLEWIGDIYPGSYIPNYNEKFKNKATLTVDTSSSTAYMQLTSLASEDSALYYCAGGYFDVWGAGTTVTVSS
VL: DIVMTQSPSSLSVSAGEKVTMSCKSSQSLLSSGNQKNYLAWYQQKPGQPPKLLIYGASTRESGVPDRFTGSGSGTDFTLTISSVQAEDLAVYYCQNDHSYPYTFGGGTKLEIK
notes: Variant of VH0K0; also called VH0K0 N28T
Human CD112R (PVRIG) [1]
  Kd: 0.102 nM
  Relative Kd (against VH0Vk0): 0.61
Human CD112R (PVRIG) [11]
  Kd: 0.126 nM
  Relative Kd (against VH0K0 N28T): 1
  koff: 5.02e-05 s⁻¹
  kon: 400000 M⁻¹ s⁻¹

B7: VH0 N28Q Vk0 (antibody, human IgG1, V domains shown)
VH: QVQLQQPGAELVKPGTSVKLSCKASGYQFTSYWINWVKLRPGQGLEWIGDIYPGSYIPNYNEKFKNKATLTVDTSSSTAYMQLTSLASEDSALYYCAGGYFDVWGAGTTVTVSS
VL: DIVMTQSPSSLSVSAGEKVTMSCKSSQSLLSSGNQKNYLAWYQQKPGQPPKLLIYGASTRESGVPDRFTGSGSGTDFTLTISSVQAEDLAVYYCQNDHSYPYTFGGGTKLEIK
notes: Variant of VH0K0
Human CD112R (PVRIG) [1]
  Kd: 0.116 nM
  Relative Kd (against VH0Vk0): 0.69

B8: VH0 T30A Vk0 (antibody, human IgG1, V domains shown)
VH: QVQLQQPGAELVKPGTSVKLSCKASGYNFASYWINWVKLRPGQGLEWIGDIYPGSYIPNYNEKFKNKATLTVDTSSSTAYMQLTSLASEDSALYYCAGGYFDVWGAGTTVTVSS
VL: DIVMTQSPSSLSVSAGEKVTMSCKSSQSLLSSGNQKNYLAWYQQKPGQPPKLLIYGASTRESGVPDRFTGSGSGTDFTLTISSVQAEDLAVYYCQNDHSYPYTFGGGTKLEIK
notes: Variant of VH0K0
Human CD112R (PVRIG) [1]
  Kd: 0.106 nM
  Relative Kd (against VH0Vk0): 0.63

B9: VH0 N28D Vk0 (antibody, human IgG1, V domains shown)
VH: QVQLQQPGAELVKPGTSVKLSCKASGYDFTSYWINWVKLRPGQGLEWIGDIYPGSYIPNYNEKFKNKATLTVDTSSSTAYMQLTSLASEDSALYYCAGGYFDVWGAGTTVTVSS
VL: DIVMTQSPSSLSVSAGEKVTMSCKSSQSLLSSGNQKNYLAWYQQKPGQPPKLLIYGASTRESGVPDRFTGSGSGTDFTLTISSVQAEDLAVYYCQNDHSYPYTFGGGTKLEIK
notes: Variant of VH0K0 without the N-linked glycosylation motif of heavy chain CDR1
Human CD112R (PVRIG) [1]
  Kd: 0.122 nM
  Relative Kd (against VH0Vk0): 0.73

B10: VH11K1 as tested in Table 4 (humanized scFv variant) (scFv, V domains shown)
VH: QVQLVQSGAEVKKPGSSVKVSCKASGYTFTSYWINWVRQAPGQGLEWIGDIYPGSYIPNYNEKFKNRATLTVDTSASTAYMELSSLRSEDTAVYYCAGGYFDVWGQGTTVTVSS
VL: DIVMTQSPDSLSVSLGERATINCKSSQSLLSSGNQKNYLAWYQQKPGQPPKLLIYGASTRESGVPDRFTGSGSGTDFTLTISSLQAEDVAVYYCQNDHSYPYTFGQGTKLEIK
notes: Format as for m33
Human CD112R (PVRIG) [2]
  Kd: 0.165 nM
  Relative Kd (against VH0K0): 0.54
  koff: 0.000101 s⁻¹
  kon: 630000 M⁻¹ s⁻¹

B11: VH11K3 as tested in Table 4 (humanized scFv variant) (scFv, V domains shown)
VH: QVQLVQSGAEVKKPGSSVKVSCKASGYTFTSYWINWVRQAPGQGLEWIGDIYPGSYIPNYNEKFKNRATLTVDTSASTAYMELSSLRSEDTAVYYCAGGYFDVWGQGTTVTVSS
VL: DIVMTQSPDSLAVSLGERATINCKSSQSLLSSGNQKNYLAWYQQKPGQPPKLLIYGASTRESGVPDRFSGSGSGTDFTLTISSLQAEDVAVYYCQNDHSYPYTFGQGTKLEIK
notes: Format as for m33
Human CD112R (PVRIG) [2]
  Kd: 0.19 nM
  Relative Kd (against VH0K0): 0.62
  koff: 0.000101 s⁻¹
  kon: 530000 M⁻¹ s⁻¹
